According to paper PMC12199161, “Structural and functional studies of the main replication protein NS1 of human parvovirus B19” (Nucleic Acids Research, 2025):
Values joined by “and” are separate entries in the source; they are usually repeats but may differ in a detail not shown here. Identical values can stand only once.

Columns and labels:
NS1_2-570 [1] = biological target: T1, NS1_2-570 (Human parvovirus B19 isolate AU, UniProt P07298); test: cryo-EM structure of complex; assay type: binding; conditions: Mg2+ (5 mM MgCl2 in DNA complexes); Walker A site, one AMPPNP per protomer; DNA-free dodecamer; also ternary complexes with ssDNA (3.3 Å, hexamer) and dsDNA (3.43 Å, dodecamer)
T1 construct: gene NS1; residues 2-570 of 671 (Nuc, OD, SF3 HD, TAD; ZnD missing); N-terminal His-MBP tag, TEV-treated; codon-optimized cDNA; E. coli Rosetta (DE3); monomer 62 kDa; ~830 kDa oligomer by gel filtration

cryo-EM structure = biological target: the molecule itself; test: cryo-EM structure
NS1_2-570 [2] = biological target: NS1_2-570 (Human parvovirus B19 (B19V), UniProt I7BP20 2-570); test: EMSA; no ATP or Mg2+ listed; conditions: protein: recombinant; tags: N-terminal His6-MBP, TEV protease treated; chain copies: 12; label: 5'-FAM on top strand; blunt
[3] = biological target: the molecule itself; test: SEC; NS1_200-501 (WT and 3G mutant) on Superdex 200 Increase 10/30 GL

T1 sequence (P07298 2-570): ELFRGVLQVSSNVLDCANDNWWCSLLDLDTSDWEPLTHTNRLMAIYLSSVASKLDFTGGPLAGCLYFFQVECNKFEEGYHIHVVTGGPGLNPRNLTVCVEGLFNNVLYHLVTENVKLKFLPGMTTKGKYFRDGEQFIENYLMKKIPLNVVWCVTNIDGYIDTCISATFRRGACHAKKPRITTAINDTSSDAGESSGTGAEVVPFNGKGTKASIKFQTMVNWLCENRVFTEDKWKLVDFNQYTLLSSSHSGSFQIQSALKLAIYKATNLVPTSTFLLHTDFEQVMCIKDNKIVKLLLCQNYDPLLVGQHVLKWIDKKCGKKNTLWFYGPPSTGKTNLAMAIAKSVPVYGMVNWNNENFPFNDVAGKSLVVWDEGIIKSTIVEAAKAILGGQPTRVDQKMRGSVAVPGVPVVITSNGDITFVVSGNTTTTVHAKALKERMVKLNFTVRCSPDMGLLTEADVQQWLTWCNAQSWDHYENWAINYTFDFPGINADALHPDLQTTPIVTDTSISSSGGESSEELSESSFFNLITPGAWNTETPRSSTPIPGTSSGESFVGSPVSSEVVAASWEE

Nc1ncnc2c1ncn2[C@@H]1O[C@H](COP(=O)(O)OP(=O)(O)NP(=O)(O)O)[C@@H](O)[C@H]1O [AMPPNP]
AMPPNP binding site (NS1_2-570 [1]): one AMPPNP molecule is captured at the characteristic Walker A region of each NS1 protomer

B1: B19V NS1_2-570 protein (domain or fragment)
chain: ELFRGVLQVSSNVLDCANDNWWCSLLDLDTSDWEPLTHTNRLMAIYLSSVASKLDFTGGPLAGCLYFFQVECNKFEEGYHIHVVIGGPGLNPRNLTVCVEGLFNNVLYHLVTENVKLKFLPGMTTKGKYFRDGEQFIENYLMKKIPLNVVWCVTNIDGYIDTCISATFRRGACHAKKPRITTAINDTSSDAGESSGTGAEVVPFNGKGTKASIKFQTMVNWLCENRVFTEDKWKLVDFNQYTLLSSSHSGSFQIQSALKLAIFKATNLVPTSTFLLHTDFEQVMCIKDNKIVKLLLCQNYDPLLVGQHVLKWIDKKCGKKNTLWFYGPPSTGKTNLAMAIAKSVPVYGMVNWNNENFPFNDVAGKSLVVWDEGIIKSTIVEAAKAILGGQPTRVDQKMRGSVAVPGVPVVITSNGDITFVVSGNTTTTVHAKALKERMVKLNFTVRCSPDMGLLTEADVQQWLTWCNAQSWDHYENWAINYTFDFPGINADALHPDLQTTPIVTDTSISSSGGESSEELSESSFFNLITPGAWNTETPRSSTPIPGTSSGESFVGSSVSSEVVAASWEE
notes: source: E. coli Rosetta (DE3), purified (HisTrap, heparin, TEV protease, HisTrap, Superose 6 gel filtration)
stoichiometry N (cryo-EM structure): 12 and 6

B2: duplex DNA-1 (dsDNA)
DNA 1: AAGAAGACACCAAATCAGATGCCGCCGGTCGCCGCCGGTAGGCGGGAC
DNA 2: GTCCCGCCTACCGGCGGCGACCGGCGGCATCTGATTTGGTGTCTTCTT
binding result (NS1_2-570 [2]): binds

B3: NS1_200-501 protein (domain or fragment)
chain: AEVVPFNGKGTKASIKFQTMVNWLCENRVFTEDKWKLVDFNQYTLLSSSHSGSFQIQSALKLAIFKATNLVPTSTFLLHTDFEQVMCIKDNKIVKLLLCQNYDPLLVGQHVLKWIDKKCGKKNTLWFYGPPSTGKTNLAMAIAKSVPVYGMVNWNNENFPFNDVAGKSLVVWDEGIIKSTIVEAAKAILGGQPTRVDQKMRGSVAVPGVPVVITSNGDITFVVSGNTTTTVHAKALKERMVKLNFTVRCSPDMGLLTEADVQQWLTWCNAQSWDHYENWAINYTFDFPGINADALHPDLQTT
notes: source: E. coli Rosetta (DE3), purified
stoichiometry N [3]: 12
